Source: paper PMC5663869

Key:
[1] = target: H3K14ac T6C; experiment: ITC; iTC200, 25 °C, stirring 800 rpm; sample 150–260 μM, titrant 1.5–4 mM; one-site binding model; the figure legends on these data give mean ± S.D. (n = 4)
[2] = target: H3K4me1 (1-21); experiment: as above
[3] = target: H3K4me2 (1-21); experiment: as above
[4] = target: H3K4me3 (1-21); experiment: as above
[5] = target: H3T6C (1-21); experiment: as above
[6] = target: H3K4me1K14ac; experiment: as above
[7] = target: H3K4me2K14ac; experiment: as above
[8] = target: H3K4me3K14ac; experiment: as above
[9] = target: BAZ2B PHD domain (human) (UniProt Q9UIF8); experiment: ITC; iTC200, 25 °C; 150–260 μM sample, 1.5–4 mM titrant; one-site binding model; n = 4
Chain of BAZ2B PHD domain (human) (Q9UIF8 whole entry, the tested form may be a part): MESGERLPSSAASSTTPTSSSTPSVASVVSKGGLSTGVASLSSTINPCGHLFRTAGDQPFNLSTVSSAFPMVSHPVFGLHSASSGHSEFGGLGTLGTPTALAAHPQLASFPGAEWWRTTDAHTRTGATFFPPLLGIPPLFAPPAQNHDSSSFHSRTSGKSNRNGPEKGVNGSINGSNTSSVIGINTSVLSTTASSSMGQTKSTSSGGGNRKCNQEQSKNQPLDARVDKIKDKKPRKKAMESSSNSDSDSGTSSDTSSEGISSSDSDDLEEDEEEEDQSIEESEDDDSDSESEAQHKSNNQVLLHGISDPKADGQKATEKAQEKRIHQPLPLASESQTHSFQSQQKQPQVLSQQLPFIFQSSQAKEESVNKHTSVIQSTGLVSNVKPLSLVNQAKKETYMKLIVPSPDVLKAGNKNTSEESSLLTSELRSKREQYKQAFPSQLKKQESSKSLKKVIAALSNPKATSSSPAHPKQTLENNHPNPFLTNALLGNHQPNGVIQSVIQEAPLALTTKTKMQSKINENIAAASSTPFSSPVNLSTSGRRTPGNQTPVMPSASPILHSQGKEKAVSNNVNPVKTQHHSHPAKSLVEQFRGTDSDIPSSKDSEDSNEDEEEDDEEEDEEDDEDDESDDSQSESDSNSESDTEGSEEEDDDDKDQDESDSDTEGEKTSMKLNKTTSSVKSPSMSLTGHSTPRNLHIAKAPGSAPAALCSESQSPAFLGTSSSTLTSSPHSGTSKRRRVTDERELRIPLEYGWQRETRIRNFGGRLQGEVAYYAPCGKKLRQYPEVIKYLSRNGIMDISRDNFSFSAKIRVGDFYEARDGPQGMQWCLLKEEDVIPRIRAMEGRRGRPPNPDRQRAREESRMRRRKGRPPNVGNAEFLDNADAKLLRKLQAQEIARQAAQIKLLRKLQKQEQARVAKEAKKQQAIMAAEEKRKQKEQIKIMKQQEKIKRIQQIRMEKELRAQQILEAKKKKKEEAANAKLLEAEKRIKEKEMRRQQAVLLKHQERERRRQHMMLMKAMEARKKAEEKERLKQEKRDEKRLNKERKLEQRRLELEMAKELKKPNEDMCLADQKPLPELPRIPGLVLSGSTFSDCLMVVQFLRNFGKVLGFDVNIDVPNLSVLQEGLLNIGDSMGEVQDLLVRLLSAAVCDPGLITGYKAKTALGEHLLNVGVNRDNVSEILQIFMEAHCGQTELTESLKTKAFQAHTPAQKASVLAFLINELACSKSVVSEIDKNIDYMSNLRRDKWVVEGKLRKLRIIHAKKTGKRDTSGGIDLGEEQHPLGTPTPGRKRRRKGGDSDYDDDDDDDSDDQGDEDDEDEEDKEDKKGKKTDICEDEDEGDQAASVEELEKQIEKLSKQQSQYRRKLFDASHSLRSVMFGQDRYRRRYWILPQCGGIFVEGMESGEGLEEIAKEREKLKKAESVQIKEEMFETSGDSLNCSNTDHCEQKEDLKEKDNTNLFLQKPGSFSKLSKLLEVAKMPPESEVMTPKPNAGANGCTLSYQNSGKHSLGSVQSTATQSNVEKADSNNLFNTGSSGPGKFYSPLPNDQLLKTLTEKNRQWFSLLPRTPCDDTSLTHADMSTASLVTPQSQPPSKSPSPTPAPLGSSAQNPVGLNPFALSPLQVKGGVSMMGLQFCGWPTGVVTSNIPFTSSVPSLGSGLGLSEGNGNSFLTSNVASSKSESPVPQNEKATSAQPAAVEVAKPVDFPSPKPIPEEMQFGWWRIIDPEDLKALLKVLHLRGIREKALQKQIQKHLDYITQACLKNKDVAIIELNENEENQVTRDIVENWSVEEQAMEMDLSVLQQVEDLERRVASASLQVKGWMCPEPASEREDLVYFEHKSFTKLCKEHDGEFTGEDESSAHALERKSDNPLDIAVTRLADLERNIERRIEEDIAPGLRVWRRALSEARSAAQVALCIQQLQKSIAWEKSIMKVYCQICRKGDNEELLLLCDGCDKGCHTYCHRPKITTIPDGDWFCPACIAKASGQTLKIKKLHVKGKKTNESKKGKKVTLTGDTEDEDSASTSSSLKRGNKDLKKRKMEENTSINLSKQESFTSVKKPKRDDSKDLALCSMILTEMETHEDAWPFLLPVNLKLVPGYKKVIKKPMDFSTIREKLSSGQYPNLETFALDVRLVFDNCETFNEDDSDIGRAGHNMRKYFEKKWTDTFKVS

[10] = target: BAZ2B PHD–BRD (human) (UniProt Q9UIF8); experiment: as above
Chain of BAZ2B PHD–BRD (human) (Q9UIF8 whole entry): as the sequence (Q9UIF8 whole entry, the tested form may be a part) above

[11] = target: BAZ2B PHD–BRD (human) (UniProt Q9UIF8); experiment: NMR titration; H3K14ac titrated into 15N-labelled PHD–BRD at peptide/protein ratios 0.5, 1, 1.5, 2 and 4; Kd estimated apart from BRD and from PHD residues

Chain of H3T6C (1-21) (peptide, as listed by the source T6C (stands in the printed letters)): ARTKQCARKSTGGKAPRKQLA
Chain of BAZ2B PHD-BRD WT (Q9UIF8 whole entry, the tested form may be a part): as the sequence (Q9UIF8 whole entry, the tested form may be a part) above

Row | Substance | Kd [1] [µM] | stoichiometry N [1] | Kd [2] [µM] | stoichiometry N [2] | Kd [3] [µM] | stoichiometry N [3] | Kd [4] [µM] | stoichiometry N [4] | Kd [5] [µM] | stoichiometry N [5] | Kd [9] [µM] | Kd [10] [µM] | also measured
1 | BAZ2B PHD WT (from UniProt Q9UIF8 1-2168) (domain or fragment) | 27 | 4.86 | 10.2 | 0.82 | 12.4 | 0.71 | 23.9 | 0.73 | 33.2 | 0.74 |  |  | 
2 | BAZ2B PHD-BRD WT (from UniProt Q9UIF8 1-2168) (domain or fragment) | 50.4 | 2.92 | 88.4 | 1.94 | 123 | 1.76 | 130 | 1.89 | 148 | 1.59 |  |  | Kd [6]: 26.9 µM; stoichiometry N [6]: 0.54; Kd [7]: 18.9 µM; stoichiometry N [7]: 0.45; Kd [8]: 6.99 µM; stoichiometry N [8]: 0.54
3 | histone H3(1–10aa) peptide (from UniProt P68431 2-11) |  |  |  |  |  |  |  |  |  |  | 23.1 | 115 | 
4 | histone H3(1–21aa)K14ac peptide (from UniProt P68431 2-22) |  |  |  |  |  |  |  |  |  |  |  |  | Kd estimated from BRD residues [11]: > 8 µM; Kd estimated from PHD residues [11]: > 190 µM

Second part, led by results:

Row | Kd [1] [µM] | stoichiometry N [1] | Kd [2] [µM] | stoichiometry N [2] | Kd [3] [µM] | stoichiometry N [3] | Kd [4] [µM] | stoichiometry N [4] | Kd [5] [µM] | stoichiometry N [5] | Kd [9] [µM] | Kd [10] [µM] | Substance | also measured
5 |  |  |  |  |  |  |  |  |  |  | 5.78 | 54 | histone H3(1–21aa) peptide, unmodified (from UniProt P68431 2-22) | 
6 |  |  |  |  |  |  |  |  |  |  | > 4000 | > 2000 | histone H3(11–21aa) peptide (from UniProt P68431 12-22) | 
